According to publication PMC3196576, “Probing the Functional Mechanism of Escherichia coli GroEL Using Circular Permutation” (PLoS ONE, 2011):

B1: GroES (natural protein, E. coli, UniProt P0A6F9 1-97, looked up)
chain: MNIRPLHDRVIVKRKEVETKSAGGIVLTGSAAAKSTRGEVLAVGNGRILENGEVKPLDVKVGDIVIFNDGYGVKSEKIDNEEVLIMSESDILAIVEA
notes: GroES cochaperonin, Escherichia coli; 7-mer; also called cochaperonin GroES; co-chaperonin; source: purified according to Iwasa et al. [35], with an 80°C heat treatment
B2: bovine rhodanese (enzyme, UniProt P00586 1-297, looked up)
chain: MVHQVLYRALVSTKWLAESVRAGKVGPGLRVLDASWYSPGTREARKEYLERHVPGASFFDIEECRDKASPYEVMLPSEAGFADYVGSLGISNDTHVVVYDGDDLGSFYAPRVWWMFRVFGHRTVSVLNGGFRNWLKEGHPVTSEPSRPEPAIFKATLNRSLLKTYEQVLENLESKRFQLVDSRAQGRYLGTQPEPDAVGLDSGHIRGSVNMPFMNFLTEDGFEKSPEELRAMFEAKKVDLTKPLIATCRKGVTACHIALAAYLCGKPDVAIYDGSWFEWFHRAPPETWVSQGKGGKA
notes: rhodanese (thiosulfate sulfurtransferase), bovine; Unfolded for 1 hr in 6 M guanidine hydrochloride at 25°C before it was added to GroEL; also called unfolded rhodanese; source: bought: Sigma
B3: GroEL CP209 (other, E. coli)
chain: METGAVELESPFILLADKKISNIREMLPVLEAVAKAGKPLLIIAEDVEGEALATLVVNTMRGIVKVAAVKAPGFGDRRKAMLQDIATLTGGTVISEEIGMELEKATLEDLGQAKRVVINKDTTTIIDGVGEEAAIQGRVAQIRQQIEEATSDYDREKLQERVAKLAGGVAVIKVGAATEVEMKEKKARVEDALHATRAAVEEGVVAGGGVALIRVASKLADLRGQNEDQNVGIKVALRAMEAPLRQIVLNCGEEPSVVANTVKGGDGNYGYNAATEEYGNMIDMGILDPTKVTRSALQYAASVAGLMITTECMVTDLPKNDAADLGAAGGMGGMGGMGGMMVDAAKDVKFGNDARVKMLRGVNVLADAVKVTLGPKGRNVVLDKSFGAPTITKDGVSVAREIELEDKFENMGAQMVKEVASKANDAAGDGTTTATVLAQAIITEGLKAVAAGMNPMDLKRGIDKAVTAAVEELKALSVPCSDSKAIAQVGTISANSDETVGKLIAEAMDKVGKEGVITVEDGTGLQDELDVVEGMQFDRGYLSPYFINKP
notes: start methionine from the vector-derived ATG; GroEL, E. coli, from Glu209 to the original C-terminus; Val-Asp dipeptide linker (SalI site) joining the original C- and N-termini; GroEL, E. coli, from the original N-terminus minus the N-terminal methionine to Pro208; Circular permutant; source: E. coli JM109, purified (protocol of Machida et al. [34]); copies: 14
B4: GroEL CP254 (other, E. coli)
chain: MAAAQYVEGEALATLVVNTMRGIVKVAAVKAPGFGDRRKAMLQDIATLTGGTVISEEIGMELEKATLEDLGQAKRVVINKDTTTIIDGVGEEAAIQGRVAQIRQQIEEATSDYDREKLQERVAKLAGGVAVIKVGAATEVEMKEKKARVEDALHATRAAVEEGVVAGGGVALIRVASKLADLRGQNEDQNVGIKVALRAMEAPLRQIVLNCGEEPSVVANTVKGGDGNYGYNAATEEYGNMIDMGILDPTKVTRSALQYAASVAGLMITTECMVTDLPKNDAADLGAAGGMGGMGGMGGMMVDAAKDVKFGNDARVKMLRGVNVLADAVKVTLGPKGRNVVLDKSFGAPTITKDGVSVAREIELEDKFENMGAQMVKEVASKANDAAGDGTTTATVLAQAIITEGLKAVAAGMNPMDLKRGIDKAVTAAVEELKALSVPCSDSKAIAQVGTISANSDETVGKLIAEAMDKVGKEGVITVEDGTGLQDELDVVEGMQFDRGYLSPYFINKPETGAVELESPFILLADKKISNIREMLPVLEAVAKAGKPLLIIAEDVAN
notes: start methionine and extraneous N-terminal residues (Met-Ala-Ala-Ala-Gln-Tyr); GroEL, E. coli, from Val254 to the original C-terminus; Val-Asp dipeptide linker (SalI site) joining the original C- and N-termini; GroEL, E. coli, from the original N-terminus minus the N-terminal methionine to Asp253 (Ala251-Glu252-Asp253); C-terminal residues after Asp253 (Val-Ala-Asn); Circular permutant; source: …

What was measured:
GroEL R231W = target: T1, GroEL R231W (E. coli, UniProt P0A6F5 1-548, R231W); experiment: Proteinase K protection of BeFx football complexes, recovered by centrifugal concentration (100 kDa cutoff), SDS-PAGE; 0.5 µM GroEL 14-mer, 1.0 µM unfolded rhodanese, 1.1 µM GroES, 1 mM BeCl2, 10 mM NaF, 1 mM ATP; 30 mM Tris-HCl pH 7.2, 50 mM KCl, 10 mM Mg(CH3COO)2, 25°C; 1 µg/ml Proteinase K for 30 min; details: both partners purified
T1 construct: GroEL, Escherichia coli, with Arg231 replaced by tryptophan; also called RW; source: purified according to the protocol of Machida et al. [34]; copies: 14

[1] = target: the molecule itself; experiment: SEC; gel filtration profiles observed during purification (AKTA FPLC, 4°C); data not shown

Binder | binding result (GroEL R231W) | stoichiometry N [1]
B1 | binds | 
B2 | binds | 
B3 |  | ~14
B4 |  | ~14
